# Reference: article PMC3030345
# B1: 43-nt ssDNA (ssDNA)
# DNA: ATTATTATTATTCCAATGGATTTATTTATTTATTTATTTATTT
# Columns and labels:
# A3G-H248A/H250A-Myc-His = A3G-H248A/H250A-Myc-His (human, UniProt Q9HC16 1-384, H248A;H250A); test: EMSA
# APOBEC3G (A3G-Myc-His) = APOBEC3G (A3G-Myc-His) (human, UniProt Q9HC16 1-384); test: EMSA
# Chain of APOBEC3G (A3G-Myc-His) (Q9HC16 whole entry): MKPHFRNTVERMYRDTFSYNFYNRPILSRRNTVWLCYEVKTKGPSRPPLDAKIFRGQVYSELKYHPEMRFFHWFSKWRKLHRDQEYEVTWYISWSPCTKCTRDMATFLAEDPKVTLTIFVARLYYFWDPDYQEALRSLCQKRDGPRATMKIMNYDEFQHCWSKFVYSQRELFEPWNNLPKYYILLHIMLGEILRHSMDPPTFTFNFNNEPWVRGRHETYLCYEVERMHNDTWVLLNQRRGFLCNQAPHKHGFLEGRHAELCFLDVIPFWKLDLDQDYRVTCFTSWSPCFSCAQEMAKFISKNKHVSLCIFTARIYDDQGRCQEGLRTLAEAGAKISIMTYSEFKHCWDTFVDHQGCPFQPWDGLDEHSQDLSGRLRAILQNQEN
# Chain of A3G-H248A/H250A-Myc-His (Q9HC16 whole entry H248A/H250A): as the sequence (Q9HC16 whole entry) above, with H248A, H250A counted along it
binder,measurement,setting,value
B1,binding result,A3G-H248A/H250A-Myc-His,binds
same,binding result,APOBEC3G (A3G-Myc-His),binds
